Reference: patent US20130336973A1
Where “and” joins values, the source holds several entries; their conditions need not be identical. Equal entries are not always repeated.

Assays:
[1] = target: FcγRIIB (CD32b), Y163 allotype (UniProt P31994); test: SPR
[2] = target: FcγRIIIA (CD16a), F158 allotype (UniProt P08637); test: SPR
[3] = target: neonatal Fc receptor (FcRn) (UniProt P55899); test: SPR, Ab captured on goat anti-human IgG, FcRn flowed, pH 6.0
neonatal Fc receptor (FcRn), sequence (P55899 24-297 limits assumed, chain 1 of 2): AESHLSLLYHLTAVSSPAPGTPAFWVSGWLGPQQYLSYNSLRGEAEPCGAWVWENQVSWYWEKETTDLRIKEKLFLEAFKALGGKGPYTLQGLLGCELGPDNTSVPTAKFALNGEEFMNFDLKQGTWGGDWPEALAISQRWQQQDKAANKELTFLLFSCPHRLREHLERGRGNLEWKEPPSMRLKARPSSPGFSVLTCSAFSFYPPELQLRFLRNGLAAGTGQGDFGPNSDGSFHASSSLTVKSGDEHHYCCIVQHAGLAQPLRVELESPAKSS
neonatal Fc receptor (FcRn), sequence (P61769 21-119 limits assumed, chain 2 of 2, further chain): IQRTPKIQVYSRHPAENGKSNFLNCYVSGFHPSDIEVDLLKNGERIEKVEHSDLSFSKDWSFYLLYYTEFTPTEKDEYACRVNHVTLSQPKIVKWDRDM

FcγRIIIA (CD16a), F158 allotype, sequence (P08637 17-208 limits assumed): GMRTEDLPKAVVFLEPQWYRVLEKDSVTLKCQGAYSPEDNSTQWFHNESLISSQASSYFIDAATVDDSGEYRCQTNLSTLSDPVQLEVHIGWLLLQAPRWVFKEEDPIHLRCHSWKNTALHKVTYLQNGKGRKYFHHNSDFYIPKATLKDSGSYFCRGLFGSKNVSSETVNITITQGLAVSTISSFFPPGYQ
FcγRIIB (CD32b), Y163 allotype, sequence (P31994 43-217 limits assumed): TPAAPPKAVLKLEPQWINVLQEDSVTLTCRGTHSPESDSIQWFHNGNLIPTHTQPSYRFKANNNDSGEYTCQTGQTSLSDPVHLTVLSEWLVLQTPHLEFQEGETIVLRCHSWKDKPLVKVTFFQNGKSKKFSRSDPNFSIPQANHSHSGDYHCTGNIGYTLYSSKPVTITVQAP

D399C_F405A_Y407V / T366L_K392C_T394W (antibody)
Kd [1]: 1200 nM
Kd [2]: 510 nM

F405A_Y407V / T366L_K392M_T394W (antibody)
Kd [2]: 460 nM

F405A_Y407V / T366L_T394W (antibody)
Kd [2]: 480 nM

Herceptin WT (antibody)
Kd [3]: 3700 nM
Kd [1]: 1700 nM

L351Y_F405A_Y407V / T366L_K392M_T394W (antibody)
Kd [3]: 5000 nM
Kd [2]: 420 nM

Q347R_T350V_L351Y_S400E_F405A_Y407V / T350V_K360E_T366L_N390R_K392M_T394W (antibody)
Kd [1]: 920 nM
Kd [2]: 420 nM

T350V_F405A_Y407V / T350V_T366L_K392M_T394W (antibody)
Kd [1]: 1000 nM

T350V_L351Y_F405A_Y407V / T350V_T366L_K392L_T394W (antibody)
Kd [3]: 3900 nM
Kd [1]: 990 nM

T350V_L351Y_F405A_Y407V / T350V_T366L_K392M_T394W (antibody)
Kd [3]: 4300 nM
Kd [1]: 1200 nM
Kd [2]: 460 nM

T350V_L351Y_S400E_F405A_Y407V / T350V_L351Y_T366L_N390R_K392M_T394W (antibody)
Kd [1]: 710 nM

T350V_L351Y_S400E_F405A_Y407V / T350V_T366L_N390R_K392F_T394W (antibody)
Kd [1]: 710 nM

T350V_L351Y_S400E_F405A_Y407V / T350V_T366L_N390R_K392L_T394W (antibody)
Kd [1]: 910 nM

T350V_L351Y_S400E_F405A_Y407V / T350V_T366L_N390R_K392M_T394W (antibody)
Kd [3]: 5000 nM
Kd [1]: 900 nM
Kd [2]: 450 nM and 420 nM

T350V_L351Y_S400E_F405S_Y407V / T350V_T366L_N390R_K392M_T394W (antibody)
Kd [1]: 830 nM
Kd [2]: 420 nM

T350V_L351Y_S400E_F405T_Y407V / T350V_T366L_N390R_K392M_T394W (antibody)
Kd [1]: 670 nM

T350V_L351Y_S400R_F405A_Y407V / T350V_T366L_K392M_T394W (antibody)
Kd [1]: 890 nM

T350V_L351Y_S400R_F405A_Y407V / T350V_T366L_N390D_K392M_T394W (antibody)
Kd [1]: 940 nM

T350V_L351Y_S400R_F405A_Y407V / T350V_T366L_N390E_K392M_T394W (antibody)
Kd [1]: 890 nM
Kd [2]: 420 nM

T350V_S400E_F405A_Y407V / T350V_T366L_N390R_K392M_T394W (antibody)
Kd [1]: 1000 nM
Kd [2]: 450 nM

Y349C_D399C_F405A_Y407V / S354C_T366L_K392C_T394W (antibody)
Kd [2]: 630 nM

Y349C_F405A_Y407V / S354C_T366L_T394W (antibody)
Kd [1]: 1200 nM
Kd [2]: 580 nM

Y349C_T350V_F405A_Y407V / T350V_S354C_T366L_K392M_T394W (antibody)
Kd [3]: 4100 nM
Kd [2]: 460 nM

Y349C_T350V_L351Y_S400E_F405A_Y407V / T350V_S354C_T366L_N390R_K392M_T394W (antibody)
Kd [1]: 950 nM
Kd [2]: 420 nM
